These results are taken from the supplement of paper PMC11246515.

± gives the standard deviation of the averaged measurements.

The series can be described thus: total protein half-life in vivo (active degradation + dilution); higher = more stable protein.
[1] abbreviates: E. coli NCM3722 delta-clpP delta-lon delta-hslV, growth: N-lim chemostat, doubling time 6 h.
Where [2] appears, read: E. coli NCM3722 delta-clpP, growth: N-lim chemostat, doubling time 6 h.
[3] abbreviates: E. coli NCM3722 delta-hslV, growth: N-lim chemostat, doubling time 6 h.
Where [4] appears, read: E. coli NCM3722 delta-lon, growth: N-lim chemostat, doubling time 6 h.
Setting [5] is: E. coli NCM3722 delta-smpB, growth: N-lim chemostat, doubling time 6 h.
Setting [6] is: wild type E. coli NCM3722, growth: C-lim chemostat, doubling time 3 h.
Where [7] appears, read: wild type E. coli NCM3722, growth: C-lim chemostat, doubling time 6 h.
Setting [8] is: wild type E. coli NCM3722, growth: C-lim chemostat, doubling time 12 h.
Where [9] appears, read: wild type E. coli NCM3722, growth: N-lim chemostat, doubling time 6 h.
The mark [10] stands for this setting: wild type E. coli NCM3722, growth: N-lim chemostat, doubling time 12 h.
Where [11] appears, read: wild type E. coli NCM3722, growth: P-lim chemostat, doubling time 6 h.
Setting [12] is: wild type E. coli NCM3722, growth: P-lim chemostat, doubling time 12 h.

For the sequence “MQAIPMTLRGAEKLREELDFLKSVRRPEIIAAIAEAREHGDLKENAEYHAAREQQGFCEGRIKDIEAKLSNAQVIDVTKMPNNGRVIFGATVTVLNLDSDEEQTYRIVGDDEADFKQNLISVNSPIARGLIGKEEDDVVVIKTPGGEVEFEVIKVEYL [P0A6W5]”, the “total protein half-life in vivo” value under setting [1] stood at 5.3 ± 0.11 h; the “total protein half-life in vivo” value under setting [2] amounted to 4.38 ± 0.77 h; the “total protein half-life in vivo” value under setting [3] is 3.21 ± 0.12 h; the “total protein half-life in vivo” value under setting [4] was found to be 3.76 ± 0.18 h; the “total protein half-life in vivo” value under setting [5] was 2.44 ± 0.26 h; the “total protein half-life in vivo” value under setting [6] was 2.57 ± 0.24 h. For the same sequence, the “total protein half-life in vivo” value is, setting by setting: under setting [7], 4.48 ± 0.2 h; under setting [8], 6.41 ± 0.17 h; under setting [9], 3.27 ± 0.066 h; under setting [10], 4.46 ± 0.28 h; under setting [11], 3.75 ± 0.55 h; under setting [12], 6.8 ± 0.8 h.

Regarding “MNIVDQQTFRDAMSCMGAAVNIITTDGPAGRAGFTASAVCSVTDTPPTLLVCLNRGASVWPAFNENRTLCVNTLSAGQEPLSNLFGGKTPMEHRFAAARWQTGVTGCPQLEEALVSFDCRISQVVSVGTHDILFCAIEAIHRHTTPYGLVWFDRSYHALMRPAC”, the “total protein half-life in vivo” value was 5.375 ± 0.033 h under setting [1]; 0.819 ± 0.077 h under setting [2]; 0.419 h under setting [3]; 0.406 h under setting [4]; 0.684 ± 0.19 h under setting [5]; 0.452 h under setting [9]. Also, the “total protein half-life in vivo” value under setting [10] was determined as 1.16 h.

As for “MKKLVATAPRVAALVEYEDRAILANEVKIRVRFGAPKHGTEVVDFRAASPFIDEDFNGEWQMFTPRPADAPRGIEFGKFQLGNMVVGDIIECGSDVTDYAVGDSVCGYGPLSETVIINAVNNYKLRKMPQGSSWKNAVCYDPAQFAMSGVRDANVRVGDFVVVVGLGAIGQIAIQLAKRAGASVVIGVDPIAHRCDIARRHGADFCLNPIGTDVGKEIKTLTGKQGADVIIETSGYADALQSALRGLAYGGTISYVAFAKPFAEGFNLGREAHFNNAKIVFSRACSEPNPDYPRWSRKRIEETCWELLMNGYLNCEDLIDPVVTFANSPESYMQYVDQHPEQSIKMGVTF”, the “total protein half-life in vivo” value under setting [1] came out at 6.29 ± 0.3 h.

On to “MKKALQVAMFSLFTVIGFNAQANEHHHETMSEAQPQVISATGVVKGIDLESKKITIHHDPIAAVNWPEMTMRFTITPQTKMSEIKTGDKVAFNFVQQGNLSLLQDIKVSQ”, for which the “total protein half-life in vivo” value by setting is: under setting [2], 2.72 h; under setting [3], 5.07 ± 1 h; under setting [4], 5.07 ± 0.12 h; under setting [5], 4.22 h; under setting [6], 2.8 h; under setting [7], 4.69 h. The “total protein half-life in vivo” value runs as follows: under setting [8], 6.31 ± 4.1 h; under setting [9], 4.84 ± 0.35 h; under setting [10], 7.67 ± 1.3 h; under setting [11], 4.39 ± 1 h; under setting [12], 7.41 ± 1.9 h.

Turning to “MQAATVVINRRALRHNLQRLRELAPASKMVAVVKANAYGHGLLETARTLPDADAFGVARLEEALRLRAGGITKPVLLLEGFFDARDLPTISAQHFHTAVHNEEQLAALEEASLDEPVTVWMKLDTGMHRLGVRPEQAEAFYHRLTQCKNVRQPVNIVSHFARADEPKCGATEKQLAIFNTFCEGKPGQRSIAASGGILLWPQSHFDWVRPGIILYGVSPLEDRSTGADFGCQPVMSLTSSLIAVREHKAGEPVGYGGTWVSERDTRLGVVAMGYGDGYPRAAPSGTPVLVNGREVPIVGRVAMDMICVDLGPQAQDKAGDPVILWGEGLPVERIAEMTKVSAYELITRLTSRVAMKYVD [P0A6B4]”, the “total protein half-life in vivo” value was determined as 5.14 ± 0.16 h under setting [1]; 4.27 ± 0.085 h under setting [2]; 5.12 ± 0.41 h under setting [3]; 4.99 ± 0.29 h under setting [4]; 4.58 ± 1.3 h under setting [5]; 3.1 ± 0.046 h under setting [6]. For the same sequence, the “total protein half-life in vivo” value reads like this: under setting [7], 5.75 ± 0.44 h; under setting [8], 11 ± 1.9 h; under setting [9], 4.39 ± 0.14 h; under setting [10], 7.99 ± 0.34 h; under setting [11], 5.87 ± 0.2 h; under setting [12], 11.53 ± 0.057 h.

As for “MTTVYTLVSWLAILGYWLLIAGVTLRILMKRRAVPSAMAWLLIIYILPLVGIIAYLAVGELHLGKRRAERARAMWPSTAKWLNDLKACKHIFAEENSSVAAPLFKLCERRQGIAGVKGNQLQLMTESDDVMQALIRDIQLARHNIEMVFYIWQPGGMADQVAESLMAAARRGIHCRLMLDSAGSVAFFRSPWPELMRNAGIEVVEALKVNLMRVFLRRMDLRQHRKMIMIDNYIAYTGSMNMVDPRYFKQDAGVGQWIDLMARMEGPIATAMGIIYSCDWEIETGKRILPPPPDVNIMPFEQASGHTIHTIASGPGFPEDLIHQALLTAAYSAREYLIMTTPYFVPSDDLLHAICTAAQRGVDVSIILPRKNDSMLVGWASRAFFTELLAAGVKIYQFEGGLLHTKSVLVDGELSLVGTVNLDMRSLWLNFEITLAIDDKGFGADLAAVQDDYISRSRLLDARLWLKRPLWQRVAERLFYFFSPLL [P0A6H8]”, the “total protein half-life in vivo” value was 6.74 ± 0.71 h under setting [1]; 7.06 ± 0.36 h under setting [3]; 6.87 ± 0.85 h under setting [4]; 6.25 ± 0.099 h under setting [5]; 3.38 ± 0.26 h under setting [6]; 6.636 ± 0.027 h under setting [7]. Besides, the “total protein half-life in vivo” value by setting is: under setting [8], 13.5 ± 0.82 h; under setting [9], 6.16 ± 0.22 h; under setting [10], 13.1 ± 1.4 h; under setting [11], 6.275 ± 0.026 h; under setting [12], 13.1 ± 0.13 h.

Consider “MNEVVNSGVMNIASLVVSVVVLLIGLILWFFINRASSRTNEQIELLEALLDQQKRQNALLRRLCEANEPEKADKKTVESQKSVEDEDIIRLVAER”, for which the “total protein half-life in vivo” value is 3.97 ± 0.73 h under setting [1]; 6.38 h under setting [2]; 1.45 h under setting [4]; 1.31 h under setting [5]; 2.6 h under setting [6]; 1.78 h under setting [9]. Moreover, the “total protein half-life in vivo” value reads like this: under setting [11], 2.17 h; under setting [12], 3.4 ± 1.1 h.

In the case of “MKVLIVESEFLHQDTWVGNAVERLADALSQQNVTVIKSTSFDDGFAILSSNEAIDCLMFSYQMEHPDEHQNVRQLIGKLHERQQNVPVFLLGDREKALAAMDRDLLELVDEFAWILEDTADFIAGRAVAAMTRYRQQLLPPLFSALMKYSDIHEYSWAAPGHQGGVGFTKTPAGRFYHDYYGENLFRTDMGIERTSLGSLLDHTGAFGESEKYAARVFGADRSWSVVVGTSGSNRTIMQACMTDNDVVVVDRNCHKSIEQGLMLTGAKPVYMVPSRNRYGIIGPIYPQEMQPETLQKKISESPLTKDKAGQKPSYCVVTNCTYDGVCYNAKEAQDLLEKTSDRLHFDEAWYGYARFNPIYADHYAMRGEPGDHNGPTVFATHSTHKLLNALSQASYIHVREGRGAINFSRFNQAYMMHATTSPLYAICASNDVAVSMMDGNSGLSLTQEVIDEAVDFRQAMARLYKEFTADGSWFFKPWNKEVVTDPQTGKTYDFADAPTKLLTTVQDCWVMHPGESWHGFKDIPDNWSMLDPIKVSILAPGMGEDGELEETGVPAALVTAWLGRHGIVPTRTTDFQIMFLFSMGVTRGKWGTLVNTLCSFKRHYDANTPLAQVMPELVEQYPDTYANMGIHDLGDTMFAWLKENNPGARLNEAYSGLPVAEVTPREAYNAIVDNNVELVSIENLPGRIAANSVIPYPPGIPMLLSGENFGDKNSPQVSYLRSLQSWDHHFPGFEHETEGTEIIDGIYHVMCVKA”, the “total protein half-life in vivo” value under setting [1] is 5.82 ± 0.47 h; the “total protein half-life in vivo” value under setting [2] is 4.96 ± 1.1 h; the “total protein half-life in vivo” value under setting [3] stood at 6.09 ± 0.29 h; the “total protein half-life in vivo” value under setting [4] was 5.74 ± 0.22 h; the “total protein half-life in vivo” value under setting [5] was 5.38 ± 0.21 h; the “total protein half-life in vivo” value under setting [6] is 3.193 ± 0.023 h. The “total protein half-life in vivo” value reads like this: under setting [7], 5.14 ± 0.23 h; under setting [8], 11.5 ± 0.12 h; under setting [9], 6.03 ± 0.28 h; under setting [10], 12.1 ± 2 h; under setting [11], 6.14 ± 0.3 h; under setting [12], 11.5 ± 0.15 h.
